Data published in the DeepSol protein solubility set.

Assay: soluble on expression in E. coli; label from the status in PepcDB or PDB records

**Q.** For “MSLTGREILEKLERREFTREVLKEALSINDRGFNEALFKLADEIRRKYVGDEVHIRAIIEFSNVCRKNCLYCGLRRDNKNLKRYRMTPEEIVERARLAVQFGAKTIVLQSGEDPYYMPDVISDIVKEIKKMGVAVTLSLGEWPREYYEKWKEAGADRYLLRHETANPVLHRKLRPDTSFENRLNCLLTLKELGYETGAGSMVGLPGQTIDDLVDDLLFLKEHDFDMVGIGPFIPHPDTPLANEKKGDFTLTLKMVALTRILLPDSNIPATTAMGTIVPGGREITLRCGANVIMPNWTPSPYRQLYQLYPGKICVFEKDTACIPCVMKMIELLGRKPGRDWGGRKRVFETVEGHHHHHH”, which “soluble on expression in E. coli” value is on record?
**A.** Its value is “soluble”.

**Q.** For “MSLMFERSPDDPLPLVYACSGCSNVAQLANDLALRLDRARLAEMSCIAGVGGDVPLLVRRARSGRPILALDGCPLHCVKGCLARHEVVPTLHLTLSEHGLKKRYGEDCEAQDAERLFVELERLLTPGGKRRCEEGHHHHHH”, which “soluble on expression in E. coli” value is on record?
**A.** The value was “soluble”.

**Q.** For “MNGHISNHPSSFGMYPSQMNGYGSSPTFSQTDREHGSKTSAKALYEQRKNYARDSVSSVSDISQYRVEHLTTFVLDRKDAMITVDDGIRKLKLLDAKGKVWTQDMILQVDDRAVSLIDLESKNELENFPLNTIQHCQAVMHSCSYDSVLALVCKEPTQNKPDLHLFQCDEVKANLISEDIESAISDSKGGKQKRRPDALRMISNADPSIPPPPRAPAPAPPGTVTQVDVRSRVAAWSAWAADQGDFEKPRQYHEQEETPEMMAARIDRDVQILNHILDDIEFFITKLQKAAEAFSELSKRKKNKKGKRKGPGEGVLTLRAKPPPPDEFLDCFQKFKHGFNLLAKLKSHIQNPSAADLVHFLFTPLNMVVQATGGPELASSVLSPLLNKDTIDFLNYTVNGDERQLWMSLGGTWMKARAEWPKEQFIPPYVPRFRNGWEPPMLNFMGATMEQDLYQLAESVANVAEHQRKQEIKRLSTEHSSVSEYHPADGYAFSSNIYTRGSHLDQGEAAVAFKPTSNRHIDRNYEPLKTQPKKYAKSKYDFVARNNSELSVLKDDILEILDDRKQWWKVRNASGDSGFVPNNILDIVRPPESGLGRADPPYTHTIQKQRMEYGPRPADTPPAPSPPPTPAPVPVPLPPSTPAPVPVSKVPANITRQNSSSSDSGGSIVRDSQRHKQLPVDRRKSQMEEVQDELIHRLTIGRSAAQKKFHVPRQNVPVINITYDSTPEDVKTWLQSKGFNPVTVNSLGVLNGAQLFSLNKDELRTVCPEGARVYSQITVQKAALEDSSGSSELQEIMRRRQEKISAAASDSGVESFDEGSSH”, which “soluble on expression in E. coli” value is on record?
**A.** Its value is “soluble”.

**Q.** For “NTATVITVGNYKGGAGKTTNVVLLAYKLAKKGLKVCVLDLDPQSNATKSLLLTKSSLYQDEVVTIEKTLMTGISEKNLDGLEVKIMDNLYLLPSYIDFEDFPKYLYKNTSNQREEDYYLKNIFTPLQGKYDIVLIDVPPMSKAVTRNAVICSDYVLISLQTHERSLSGAESYVEELNKLHNEYDLDLEVVGVLPVIHKNNGSVDQYVMEVAKETFGEDNLFENVVPQMERIKRFDVNGITDKDRHDQKVLNLYDKVSDELLDRINYFEEEKEGAIN”, which “soluble on expression in E. coli” value is on record?
**A.** Its value is “not soluble”.

**Q.** With “MSLKLPVPSPMRLAVTHEGRSIIYIPSPEYAVASGRLEPAWLEVFYNPAMEFNRDVSVVAASALRRTGLLTRSGVAFDAHAGVGVRGVRYAVEAGYVKVIMNDINPKASMLAALNARANGLEPGSYMIFNKESNSLMFHLSRERPTPVSLIDIDPYGSPAPFVDAALALSGKGTVVAMTATDLAVLEGGKARAAVRRYMLRSVSKTPVSKETGLRVLLGYVARVAAAHDKAVKPLLAYYADHYYRVYVAVERGARRSDSMLEENLGRLVYCPETGVALALSYAEDPASACGGSYVVAADPAWIGSLGDQAFLEAMLNIAVEAVWLGTRPRVEKLLNTLHGEAPLSPRSIYVSLTSVASKARVNTPKKSKVVELLRSMGYRAVATHFSGEGVRTDAPWGEVLEAVVKLGSSGEGHHHHHH” as the sequence, how does the “soluble on expression in E. coli” value read?
**A.** Its value is “not soluble”.

**Q.** With “MGSDKIHHHHHHMTKAVAETLESKAAKAAPMDRLWAENDDSRVTGDPSLVVDVAGFEGPLDLLLHLARTQKVDLARISILALVEQYLAFVETARALRLELAADYLVMAAWLAFLKSKLLIPKQPGEEGESGEELAAVLQFRLKRLEAMRDAAARLVNRNRLGRDVFARGMPEMVIIEKRNAYSASLYDLLTAYAQQRQKQAVTNVTIARRGVWSLKDARDILTRLIGSLRDWTALDSFLIRYMTSPEERRTAIASSFAATLELVRERKMDLRQDEVFAPIYLRDHRAPAIKAVEVAS” as the sequence, how does the “soluble on expression in E. coli” value read?
**A.** The value was “not soluble”.

**Q.** With “RFSEVLSTPEYDNAKSPVTLALGHDIGGKPVITDLAKMPHLLVAGTTGSGKSVGVNAMILSILFKSGPEDAKLIMIDPKMLELSIYEGIPHLLCPVVTDMKDAANALRWSVAEMERRYKLMAKMGVRNLSGFNQKVKEAQDAGEPLADPLYKRESIHDEAPLLTKLPTIVVVVDEFADMMMIVGKKVEELIARIAQKARAAGIHLILATQRPSV” as the sequence, how does the “soluble on expression in E. coli” value read?
**A.** Its value is “not soluble”.

**Q.** With “AAVIEKRATCSNGKTVGDASCCAWFDVLDDIQQNLFHGGQCGAEAHESIRLVFHDSIAISPAMEAQGKFGGGGADGSIMIFDDIETAFHPNIGLDEIVKLQKPFVQKHGVTPGDFIAFAGAVALSNCPGAPQMNFFTGRAPATQPAPDGLVPEPFHTVDQIINRVNDAGEFDELELVFMLSAHSVAAVNDVDPTVQGLPFDSTPGIFDSQFFVETQLRGTAFPGSGGNQGEVESPLPGEIRIQSDHTIARDSRTACEWQSFVNNQSKLVDDFQFIFLALTQLGQDPNAMTDCSDVIPQSKPIPGNLPFSFFPAGKTIKDVEQACAETPFPTLTTLPGPETSVQRIPPPPGA” as the sequence, how does the “soluble on expression in E. coli” value read?
**A.** The value was “soluble”.

**Q.** For “MDAARFPADARVRVLARRFPPYHRDSPCLAILDRFLHDPTLSAAAVVDDAMRPVGLIDRYSLVEQFLHPYSRDLYHKHSIAAFMDPEPVIVEADSSIDDLSRIIIDAGMRHMVSGFIVTEDGLYLGIGSGHDLFEEVANRKQNHLYHLAHYDPLTSLPNRLLLNDRLKRACLRGQRGGYRIALLFIDLDRFKLVNDTLGHAAGDQLLQGVAGRFAACVRKVDTVARLGGDEFTVLLEPVQGPDEALAVAAKLAQSLERPFLIQNHEITTSASIGVVLFPEHDATVEGLMRKADAAMYCAKREGRNRFALFTEEMNSTVVERVTLESYLNAALEKGEFCCHFQPQMATADDRIVGVEALLRWTNPVLGRVPPLKFIPVAEDTGLILPLGLWALETACAQQVRWLSQGLPPLRMAVNISPLQFRNREFCDQVRAIVQRTGIRAEHLELELTESAVMADAESSVGILRELRDSGIRLAIDDFGTGYSSLSYLRKFPLDRLKIDRSFVSGIDRIPANELIVKAIVALGGSLGLDVIAEGVETPEELECIERCGCSEYQGFRLSEPLTAEDFAHWFEDSGYVLEHHHHHH”, which “soluble on expression in E. coli” value is on record?
**A.** Its value is “not soluble”.

**Q.** For “SNAWIVPKNSVLFAMYGSIGETAINKIEVATNQAILGIIPKDNILESEFLYYILAKNKNYYSKLGMQTTQKNLNAQIVKSFKIPLPPLEEQKQIAKILTKI”, which “soluble on expression in E. coli” value is on record?
**A.** The value was “not soluble”.

**Q.** For “MGSDKIHHHHHHMYWVSEDNVAGKPGKVLYVILPTIGCYRYRIGKPCYMCSYPAQAPRKTSQERIFGYFLEAIGKIKGKEGRFGIRIFTSGSFFDSSEVRRGTRIKIFQEIAKLDNVFEVVVETRSEIIREEWVRELVEIIEGKWFEVALGLETANDDIADISINKGSTFRDFVRASEIIHKAGAKVKTYLLFKPIFLSEGDAIEEMKRSIELAEPYTDTFSINMTNIQKGTLYEKIWERGEYRTPWLWSVVEVLKWAKRKFPGKRFLSDPVGAGSVRGPHNCGDSRDKPVERAIRKFSTTQDLRYLEVSGDCIEEWKYIVSQGLLDWQLIKSQVSPFSTE”, which “soluble on expression in E. coli” value is on record?
**A.** The value was “not soluble”.

**Q.** Which “soluble on expression in E. coli” value does the source give for “AKVQAYVSDEIVYKINKIVERRRAEGAKSTDVSFSSISTMLLELGLRVYEAQMER” here?
**A.** The value was “soluble”.

**Q.** Which “soluble on expression in E. coli” value does the source give for “MSLSDGYHRSPSSRVPRIEGCQHTADASPSDATGPRRHAMTAHNREPVDYLAGEMPLHRYCAHHAAQTPERIALLWYGRTICWRELDQLSTRLAVQFQRLGVARGDRVALFLQNCPQAILAHLAAAKLGAIAVPCLPLSRQHELRDQLTDCGAKILIAAADLMPIVDAARPGTAIATVITTRYADLQPAQPACRKALAVPPELIAADAASAPAGRGQAGSGQFDLMQLLAEPVDVAERNAVAAIQVDLDEVALMIYTSGTTGRPKGAMLTHRNALYKTAVTVQMSGIHAADVLLAAAPLSHIAGMLMGMNLMLYAGAPTILLFRFDPLAVLQAIDRYCVTWWYSMTPMNLAVMAHPEAGQYRMASLVNNPCTSFGAPLTEAIADRWRAFAGPKCRIYEAAYGLSETHTCDTVTPPDAPRWGWHGKIVPQTEVRIVDPRTGTALPPGRSGEITIRSPGVFRGYWRRDEATRAALQDGFLRTGDIGQVSPDGYLQWQGRLKELIKVSGYSVFPEDVEALLSRHPAIRQVAVTPLPDPDKGEVVCAHVVRMSGTALTEAELIAWSRENMAPYKVPRRVRFHDALPATVTGKILRRLLREEAAVAEGHHHHHH” here?
**A.** The value was “soluble”.

**Q.** With “MDVVFETVNCLESNRKIIIVKLPDGSSEKFFFNVTKRAFEKIVCVDGKPVQMDSDLTPHHSVWCPHIHKNIIFAYNHLLRMNLQYLFDSETLSFHETKCDQCHLDPKKSTNVKQILLVAASPKIRRPIVLTMSQEGRVLKMCYDEIEKNYVDMSPTEIKALTQLKDVTAAMEDLTLDSKVMESDLIPLVKEKSVFLPHDSILIAKNKKTNKIGQYVFDRYHHQFLEVVMSDIEIKQEMPNIAKLINVTMSTKTEQAISIRCTPGIGELKKFHYNRETASFDPMEEKAIVESDEEIQSFIEEIEKTQDIVCKKIKAILWFYHNVKPFLAKKLENPVKKNNDYKRYVFKPVEPEEKVDDEMDSVSEPESDSLSMSSSSRSSSRSSLSSDDSFEMVVDIDFVE” as the sequence, how does the “soluble on expression in E. coli” value read?
**A.** Its value is “not soluble”.

**Q.** For “MGSDKIHHHHHHDYKLVIFASFNGKAYSDNPRYLFEYLRDHEEFASYHFVWAFKVKRSVNRAKVVKFNSFSYYYLLSKAKYWVFNSKMAPYYHKKGEQVYLQTWHGTPLKRLGHDILDNGITYYRSRLSYQQMLRSYDEDSRHWDYLISPNPFSSQAFTSAFNLDRGKLLEVGYPRVDFLVNADSNKCMELKRRYGLPLDKKVVLYAPTWRDDSFGIRGYRFELAVDFYKWKNQLGDDTVILFKPHYLISNVYQIPNDLSNFVYLMAASADINDAYLMSDVLITDYSSVFFDYANLNRPIYFYMYDFEQYEQELRGFYLNVPDELPNDVIRTEKELLRRIKEDIFDYDRLQVFNQVFNSWNDGKVSSKVAKRIFYEN”, which “soluble on expression in E. coli” value is on record?
**A.** Its value is “not soluble”.

**Q.** With “MGHHHHHHENLYFQGMKKEKVEQILAEFQLQEEDLKKVMRRMQKEMDRGLRLETHEEASVKMLPTYVRSTPEGSEVGDFLSLDLGGTNFRVMLVKVGEGEEGQWSVKTKHQMYSIPEDAMTGTAEMLFDYISECISDFLDKHQMKHKKLPLGFTFSFPVRHEDIDKGILLNWTKGFKASGAEGNNVVGLLRDAIKRRGDFEMDVVAMVNDTVATMISCYYEDHQCEVGMIVGTGCNACYMEEMQNVELVEGDEGRMCVNTEWGAFGDSGELDEFLLEYDRLVDESSANPGQQLYEKLIGGKYMGELVRLVLLRLVDENLLFHGEASEQLRTRGAFETRFVSQVESDTGDRKQIYNILSTLGLRPSTTDCDIVRRACESVSTRAAHMCSAGLAGVINRMRESRSEDVMRITVGVDGSVYKLHPSFKERFHASVRRLTPSCEITFIESEEGSGRGAALVSAVACKKACMLGQ” as the sequence, how does the “soluble on expression in E. coli” value read?
**A.** The value was “soluble”.

**Q.** Which “soluble on expression in E. coli” value does the source give for “MLGHNKISVIIPAYNEERRIGNVLKGIPDFVDEVIVVDDGSSDGTSKVAMELGATVIRLNKNSGKGAAMREGLKISTGDIIVFMDADGQHNPKEIYRLVKPIVEGRADLVIGRRIITRGKRPMSRKISNFITTRLITLKTRKKILDTQSGFRAIRREFVPVIESDRYEVETEVLIKAIKKGARILEVPISTRYDVETGHFKMIDIFRFLFALIKYLEHHHHHH” here?
**A.** Its value is “not soluble”.
